Experimental data reported in US6423503.

Target: α1antichymotrypsin (ACT) (UniProt P01011)
Sequence (P01011 24-423): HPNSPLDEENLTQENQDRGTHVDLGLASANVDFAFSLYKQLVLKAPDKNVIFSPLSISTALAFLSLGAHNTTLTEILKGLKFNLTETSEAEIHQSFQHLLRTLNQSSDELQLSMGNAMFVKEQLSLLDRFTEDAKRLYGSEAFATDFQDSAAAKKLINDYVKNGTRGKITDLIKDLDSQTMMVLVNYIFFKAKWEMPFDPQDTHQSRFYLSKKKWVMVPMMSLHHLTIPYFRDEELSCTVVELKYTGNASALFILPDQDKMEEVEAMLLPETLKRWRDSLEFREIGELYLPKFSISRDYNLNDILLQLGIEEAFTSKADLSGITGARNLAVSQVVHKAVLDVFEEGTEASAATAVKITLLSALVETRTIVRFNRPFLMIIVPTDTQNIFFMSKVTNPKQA

## prostate-specific antigen (PSA), mature form
  cleavage of ACT (HIC-HPLC peak 1): Peak 1 is inactive ACT which has been cleaved by PSA
